# Measured values published in patent US20140287471A1, “VARIANT CBH I POLYPEPTIDES WITH REDUCED PRODUCT INHIBITION” (BP CORPORATION NORTN AMERICA INC., priority 2011, published 2014).
# Read-outs that look alike come from different tables or passages of the source.
# Assays:
# [1] = 4-MUL cellobiose tolerance/inhibition assay, dose-response IC50 (Example 2); type: biochemical
# Method: (§1) CBH I activity on was measured using the 4-MUL assay using gluconolactone to inhibit any BG activity. The fluorogenic 4-MUL substrate (SIGMA) was prepared at 100 mM concentration in DMSO. Assays were run in black 96-well-flat-bottomed plates (Costar) and 4-MU fluorescence was read on a BioTek H4 plate reader (ex/em 365/450 nm). Assay plates were filled with buffer (final concentrations of 100 mM MES, pH 6, 25 mM gluconolactone, with or without cellobiose; cellobiose concentrations are listed with appropriate data sets), to which enzyme mixture was added (10-30 μl, 5 μg/mL final) and then assays were initiated by addition of 4-MUL (0.5 mM final concentration in 100 μl total volume). Enzyme mixtures were either CBH I variants from harvested supernatants or standards. Standards included: a negative control, consisting of harvested supernatant from the CBH I knock-out strain; a positive control, consisting of wild-type CBH I from harvested supernatants; and, a commercial CBH I standard (E-CBHI from Megazymes). Activity standards were run by serial dilution of commercial CBH I from 40 to 0.02 μg/mL and 4-MU (SIGMA, prepared at 20 mM in DMSO) (in dilution increments of 2-fold; all dilutions were made using harvested supernatant from the knock-out control). Kinetic rates were monitored over the first 15 mins following 4-MUL addition; initial rates were calculated based on data in the linear range. After 1 hr, a final endpoint read was taken, both before and after reaction quenching (100 μL of 200 mM Sodium Carbonate, pH 10.0). Activity was calculated for kinetic and endpoint reads; background resulting from the CBH I knock-out supernatant remained negligible. 4MU standard curves and HPLC quantification values were used to calculate specific activity.
# Tolerance/inhibition values represent activity ratios and/or percent activity remaining/percent activity decreased in the presence versus the absence of cellobiose. Tolerant variants show less inhibition in the presence of cellobiose as compared to wild type, where an activity ratio of 1 (with vs. without a given concentration of cellobiose) is equivalent to 0% inhibition by cellobiose, or 100% tolerance. The effect of cellobiose on CBH I variant performance was monitored by dose-response in the 4MUL assay. Dose-response curves were generated by assaying variant activity in the presence of 6-8 different cellobiose concentrations ranging up to 100 mM cellobiose. CBH I samples were diluted to 5 μg/mL final concentration or were used directly in the case of protein quantification levels below 5 μg/mL. Half maximal inhibitory concentration (IC50) values were determined by plotting 4MUL activity versus cellobiose concentration and fitting with a four parameter dose-response fitting algorithm, with zero activity (or 100% inhibition) constrained to background activity (as established by CBH I knockout values) and with automatic outlier elimination (on GraphPad Prism 5).
# Harvested supernatants from active variant isolates were evaluated for cellobiose tolerance at 1 mM cellobiose in the 4-MUL activity assay. Table 8 lists the tolerance of variants at 1 mM. […] Additional cellobiose concentrations at 0.25, 5, 10, 50, and 100 mM were tested leading to full dose-response curves for which half maximal inhibitory concentration (IC50) values were generated (Table 8). The IC50 values support that the variant library has decreased product inhibition, or increased tolerance to cellobiose, when compared to the wild-type enzyme (WT IC50=0.03 mM; see first entry, Table 8).
# In one example, the cellobiose tolerance of the library was explored in more detail by generating dose-response curves and determining half maximal inhibitory concentration (IC50) values, the point at which the enzyme is 50% inhibited.
# [2] = 4-MUL assay, specific activity (Example 2); type: biochemical; settings: primary screening; 10 μL enzyme; n=1
# Method: as §1
# The specific activity (SA) of the variant library was evaluated in a secondary 4-MUL assay. […] On average, a mutation at position 268 increases the specific activity by 2.5 fold over that of wild type. A mutation at 268 in combination with 411 is around 1.5-1.6 fold higher than wild-type, on average.
# [3] = Secondary screening, 30 μl harvested supernatant (CBH I levels lower than 5 μg/mL), cellobiose range 0.00085-100 mM, read-out: IC50
# [4] = Secondary screening, CBH I levels normalized to 5 μg/mL, cellobiose range 0.00085-100 mM, read-out: IC50
Molecule,"IC50 [1, 3] [µM]",other results
"268— Phe (protein, UniProt P62694 18-513, looked up, variant R268F) Exoglucanase 1: QSACTLQSETHPPLTWQKCSSGGTCTQQTGSVVIDANWRWTHATNSSTNCYDGNTWSSTLCPDNETCAKNCCLDGAAYASTYGVTTSGNSLSIGFVTQSAQKNVGARLYLMASDTTYQEFTLLGNEFSFDVDVSQLPCGLNGALYFVSMDADGGVSKYPTNTAGAKYGTGYCDSQCPRDLKFINGQANVEGWEPSSNNANTGIGGHGSCCSEMDIWEANSISEALTPHPCTTVGQEICEGDGCGGTYSDNFYGGTCDPDGCDWNPYRLGNTSFYGPGSSFTLDTTKKLTVVTQFETSGAINRYYVQNGVTFQQPNAELGSYSGNELNDDYCTAEEAEFGGSSFSDKGGLTQFKKATSGGMVLVMSLWDDYYANMLWLDSTYPTNETSSTPGAVRGSCSTSSGVPAQVESQSPNAKVTFSNIKFGPIGSTGNPSGGNPPGGNRGTTTTRRPATTTGSSPGPTQSHYGQCGGIGYSGPTVCASGTTCQVLNPYYSQCL",–,"Tolerance at 1 mM CB (MUL Data) ([1]; 1 mM cellobiose, primary screening, n=1): 21%; IC50 ([1]; primary screening, 10 μL enzyme, cellobiose range 0.0001-100 mM, n=1, read-out: IC50 (MUL Data)): 400 µM; SA (μmol 4 MU/min/mg) (MUL Data) [2]: 0.70 μmol 4 MU/min/mg"
"R411T (protein, UniProt P62694 18-513, looked up, variant R411T) Exoglucanase 1: QSACTLQSETHPPLTWQKCSSGGTCTQQTGSVVIDANWRWTHATNSSTNCYDGNTWSSTLCPDNETCAKNCCLDGAAYASTYGVTTSGNSLSIGFVTQSAQKNVGARLYLMASDTTYQEFTLLGNEFSFDVDVSQLPCGLNGALYFVSMDADGGVSKYPTNTAGAKYGTGYCDSQCPRDLKFINGQANVEGWEPSSNNANTGIGGHGSCCSEMDIWEANSISEALTPHPCTTVGQEICEGDGCGGTYSDNRYGGTCDPDGCDWNPYRLGNTSFYGPGSSFTLDTTKKLTVVTQFETSGAINRYYVQNGVTFQQPNAELGSYSGNELNDDYCTAEEAEFGGSSFSDKGGLTQFKKATSGGMVLVMSLWDDYYANMLWLDSTYPTNETSSTPGAVTGSCSTSSGVPAQVESQSPNAKVTFSNIKFGPIGSTGNPSGGNPPGGNRGTTTTRRPATTTGSSPGPTQSHYGQCGGIGYSGPTVCASGTTCQVLNPYYSQCL",2020,"IC50 [1, 4]: 2000 µM"
"R268F (protein, UniProt P62694 18-513, looked up, variant R268F) Exoglucanase 1: QSACTLQSETHPPLTWQKCSSGGTCTQQTGSVVIDANWRWTHATNSSTNCYDGNTWSSTLCPDNETCAKNCCLDGAAYASTYGVTTSGNSLSIGFVTQSAQKNVGARLYLMASDTTYQEFTLLGNEFSFDVDVSQLPCGLNGALYFVSMDADGGVSKYPTNTAGAKYGTGYCDSQCPRDLKFINGQANVEGWEPSSNNANTGIGGHGSCCSEMDIWEANSISEALTPHPCTTVGQEICEGDGCGGTYSDNFYGGTCDPDGCDWNPYRLGNTSFYGPGSSFTLDTTKKLTVVTQFETSGAINRYYVQNGVTFQQPNAELGSYSGNELNDDYCTAEEAEFGGSSFSDKGGLTQFKKATSGGMVLVMSLWDDYYANMLWLDSTYPTNETSSTPGAVRGSCSTSSGVPAQVESQSPNAKVTFSNIKFGPIGSTGNPSGGNPPGGNRGTTTTRRPATTTGSSPGPTQSHYGQCGGIGYSGPTVCASGTTCQVLNPYYSQCL",515,–
"R411D (protein, UniProt P62694 18-513, looked up, variant R411D) Exoglucanase 1: QSACTLQSETHPPLTWQKCSSGGTCTQQTGSVVIDANWRWTHATNSSTNCYDGNTWSSTLCPDNETCAKNCCLDGAAYASTYGVTTSGNSLSIGFVTQSAQKNVGARLYLMASDTTYQEFTLLGNEFSFDVDVSQLPCGLNGALYFVSMDADGGVSKYPTNTAGAKYGTGYCDSQCPRDLKFINGQANVEGWEPSSNNANTGIGGHGSCCSEMDIWEANSISEALTPHPCTTVGQEICEGDGCGGTYSDNRYGGTCDPDGCDWNPYRLGNTSFYGPGSSFTLDTTKKLTVVTQFETSGAINRYYVQNGVTFQQPNAELGSYSGNELNDDYCTAEEAEFGGSSFSDKGGLTQFKKATSGGMVLVMSLWDDYYANMLWLDSTYPTNETSSTPGAVDGSCSTSSGVPAQVESQSPNAKVTFSNIKFGPIGSTGNPSGGNPPGGNRGTTTTRRPATTTGSSPGPTQSHYGQCGGIGYSGPTVCASGTTCQVLNPYYSQCL",1640,"IC50 [1, 4]: 1580 µM"
"268_+411A Gln (protein, UniProt P62694 18-513, looked up, variant R268Q R411A) Exoglucanase 1: QSACTLQSETHPPLTWQKCSSGGTCTQQTGSVVIDANWRWTHATNSSTNCYDGNTWSSTLCPDNETCAKNCCLDGAAYASTYGVTTSGNSLSIGFVTQSAQKNVGARLYLMASDTTYQEFTLLGNEFSFDVDVSQLPCGLNGALYFVSMDADGGVSKYPTNTAGAKYGTGYCDSQCPRDLKFINGQANVEGWEPSSNNANTGIGGHGSCCSEMDIWEANSISEALTPHPCTTVGQEICEGDGCGGTYSDNQYGGTCDPDGCDWNPYRLGNTSFYGPGSSFTLDTTKKLTVVTQFETSGAINRYYVQNGVTFQQPNAELGSYSGNELNDDYCTAEEAEFGGSSFSDKGGLTQFKKATSGGMVLVMSLWDDYYANMLWLDSTYPTNETSSTPGAVAGSCSTSSGVPAQVESQSPNAKVTFSNIKFGPIGSTGNPSGGNPPGGNRGTTTTRRPATTTGSSPGPTQSHYGQCGGIGYSGPTVCASGTTCQVLNPYYSQCL",–,SA (μmol 4 MU/min/mg) (MUL Data) [2]: −0.45 μmol 4 MU/min/mg
"R411Q (protein, UniProt P62694 18-513, looked up, variant R411Q) Exoglucanase 1: QSACTLQSETHPPLTWQKCSSGGTCTQQTGSVVIDANWRWTHATNSSTNCYDGNTWSSTLCPDNETCAKNCCLDGAAYASTYGVTTSGNSLSIGFVTQSAQKNVGARLYLMASDTTYQEFTLLGNEFSFDVDVSQLPCGLNGALYFVSMDADGGVSKYPTNTAGAKYGTGYCDSQCPRDLKFINGQANVEGWEPSSNNANTGIGGHGSCCSEMDIWEANSISEALTPHPCTTVGQEICEGDGCGGTYSDNRYGGTCDPDGCDWNPYRLGNTSFYGPGSSFTLDTTKKLTVVTQFETSGAINRYYVQNGVTFQQPNAELGSYSGNELNDDYCTAEEAEFGGSSFSDKGGLTQFKKATSGGMVLVMSLWDDYYANMLWLDSTYPTNETSSTPGAVQGSCSTSSGVPAQVESQSPNAKVTFSNIKFGPIGSTGNPSGGNPPGGNRGTTTTRRPATTTGSSPGPTQSHYGQCGGIGYSGPTVCASGTTCQVLNPYYSQCL",2510,–
"R411L (protein, UniProt P62694 18-513, looked up, variant R411L) Exoglucanase 1: QSACTLQSETHPPLTWQKCSSGGTCTQQTGSVVIDANWRWTHATNSSTNCYDGNTWSSTLCPDNETCAKNCCLDGAAYASTYGVTTSGNSLSIGFVTQSAQKNVGARLYLMASDTTYQEFTLLGNEFSFDVDVSQLPCGLNGALYFVSMDADGGVSKYPTNTAGAKYGTGYCDSQCPRDLKFINGQANVEGWEPSSNNANTGIGGHGSCCSEMDIWEANSISEALTPHPCTTVGQEICEGDGCGGTYSDNRYGGTCDPDGCDWNPYRLGNTSFYGPGSSFTLDTTKKLTVVTQFETSGAINRYYVQNGVTFQQPNAELGSYSGNELNDDYCTAEEAEFGGSSFSDKGGLTQFKKATSGGMVLVMSLWDDYYANMLWLDSTYPTNETSSTPGAVLGSCSTSSGVPAQVESQSPNAKVTFSNIKFGPIGSTGNPSGGNPPGGNRGTTTTRRPATTTGSSPGPTQSHYGQCGGIGYSGPTVCASGTTCQVLNPYYSQCL",6390,–
"R411E (protein, UniProt P62694 18-513, looked up, variant R411E) Exoglucanase 1: QSACTLQSETHPPLTWQKCSSGGTCTQQTGSVVIDANWRWTHATNSSTNCYDGNTWSSTLCPDNETCAKNCCLDGAAYASTYGVTTSGNSLSIGFVTQSAQKNVGARLYLMASDTTYQEFTLLGNEFSFDVDVSQLPCGLNGALYFVSMDADGGVSKYPTNTAGAKYGTGYCDSQCPRDLKFINGQANVEGWEPSSNNANTGIGGHGSCCSEMDIWEANSISEALTPHPCTTVGQEICEGDGCGGTYSDNRYGGTCDPDGCDWNPYRLGNTSFYGPGSSFTLDTTKKLTVVTQFETSGAINRYYVQNGVTFQQPNAELGSYSGNELNDDYCTAEEAEFGGSSFSDKGGLTQFKKATSGGMVLVMSLWDDYYANMLWLDSTYPTNETSSTPGAVEGSCSTSSGVPAQVESQSPNAKVTFSNIKFGPIGSTGNPSGGNPPGGNRGTTTTRRPATTTGSSPGPTQSHYGQCGGIGYSGPTVCASGTTCQVLNPYYSQCL",3380,–
